According to patent US20210206877A1 (Genentech, published 2021):
Changes are numbered by the printed parent chain.

B1: antibody 6266 (antibody, V domains shown)
VH: EVQLVQSGAEVKKPGSSVKVSCKASGGTLSGYGVSWVRQAPGQGLEWMGNIIPGFGTANYAQKFQGRVTITADESTSTAYMELSSLRSEDTAVYYCARSGGTKYGMLDVWGQGTMVTVSS
VL: EIVMTQSPATLSVSPGERATLSCRASQSVSSNLAWYQQKPGQAPRLLIYGASTRATGIPARFSGSGSGTEFTLTISSLQSEDFAVYYCQQLILWPPRTFGGGTKVEIK
B2: 6300 (antibody, V domains shown)
VH: B1 VH with E1Q, G33A, V34I, F64S, K103R
VL: B1 VL with M4L, S30G, L91S, I92F
B3: 6303 (antibody, V domains shown)
VH: B1 VH with E1Q, G33A, V34I, F64S, K103R
VL: B1 VL with Y49F, I92L, L93T
B4: 6305 (antibody, V domains shown)
VH: B1 VH with E1Q, G33A, V34I, F64S, K103R
VL: B1 VL with M4L, S30G, L91S, I92F, L93V
B5: 6307 (antibody, V domains shown)
VH: QLQLQESGPGLVKPSETLSLTCTVSGGSISWSSYYWSWIRQPPGKGLEWIGSIYRSGRTYYNPSLKGRVTISVDTSKNQFSLKLSSVTAADTAVYYCARVGHGINYFDLWGRGTLVTVSS
VL: B1 VL with M4L, V13L, N32Y, G50D, T53N, E70D, Q79E, S80P, L91S, L93V
B6: 6308 (antibody, V domains shown)
VH: B5 VH with G67S
VL: EIVLTQSPATLSLSPGERATLSCRASQSVSSYLAWYQQKPGQAPRLLIYDASKRATGIPARFSGSGSGTDFTLTISSLEPEDFAVYYCQQSLVWPPRTFGGGTKVEIK
B7: 6309 (antibody, V domains shown)
VH: B5 VH with G67S
VL: B6 VL with K53N, L92I, V93T
B8: 6310 (antibody, V domains shown)
VH: B5 VH with G67S
VL: B6 VL with K53N, L92V, V93T
B9: 6311 (antibody, V domains shown)
VH: B5 VH with G67S
VL: B6 VL with K53N, V93T
B10: 6313 (antibody, V domains shown)
VH: B5 VH with W31R, S32G, S37G, S52M, R55Y, R58S, Y60W, G67S, I104V, N105S
VL: B6 VL with K53N, S91A, L92Y
B11: 6314 (antibody, V domains shown)
VH: B5 VH with W31R, S32G, S37G, S52M, R55Y, R58S, Y60W, G67S, I104V, N105S
VL: B6 VL with K53N, L92I
B12: 6315 (antibody, V domains shown)
VH: B5 VH with W31R, S32G, S37G, S52M, R55Y, R58S, Y60W, G67S, I104V, N105S
VL: B6 VL with T103A

What follows are binders tested against T1, BACE1 endogenous to primary cortical neurons from E16.5 CD1 mice (mouse, UniProt P56818 46-501) (assay: cell-based or functional assay).
T1 sequence (P56818 46-501): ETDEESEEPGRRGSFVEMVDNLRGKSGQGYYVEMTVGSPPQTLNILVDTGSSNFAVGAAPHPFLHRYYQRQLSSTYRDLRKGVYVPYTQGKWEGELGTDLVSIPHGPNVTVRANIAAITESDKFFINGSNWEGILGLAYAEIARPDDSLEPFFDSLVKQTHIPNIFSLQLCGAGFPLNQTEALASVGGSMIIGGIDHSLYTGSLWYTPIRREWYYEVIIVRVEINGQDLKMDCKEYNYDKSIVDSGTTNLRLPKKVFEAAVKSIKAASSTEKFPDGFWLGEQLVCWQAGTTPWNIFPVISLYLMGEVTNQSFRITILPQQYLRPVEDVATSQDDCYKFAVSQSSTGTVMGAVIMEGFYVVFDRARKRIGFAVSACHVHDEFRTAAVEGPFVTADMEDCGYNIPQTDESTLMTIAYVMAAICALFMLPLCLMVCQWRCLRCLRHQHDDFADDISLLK

Row | Binder | max % inhibition, Abeta x-40 in mouse cortical neurons [%]
1 | B1 | 87

Target: T1, BACE1 endogenous to primary cortical …
Experiment: cell-based or functional assay
Remark: another data set of the same source

Row | Binder | IC50, inhibition of Aβx-40 production in primary mouse cortical neuron cultures (sandwich ELISA of supernatants) [nM]
2 | B1 | 1.7

Target: T1, BACE1 endogenous to primary cortical …
Experiment: cell-based or functional assay
Remark: another data set of the same source

Row | Binder | max % inhibition, Abeta x-40 in mouse cortical neurons [%]
3 | B2 | 71
4 | B3 | 76
5 | B4 | 67
6 | B5 | 68
7 | B6 | 60
8 | B7 | 60
9 | B8 | 71
10 | B9 | 63
11 | B10 | 67
12 | B11 | 71
13 | B12 | 73
